Measured values: patent US8088892B2, “Inhibitors of proteins from the Rho-GEF family” (Centre National de la Recherche Scientifique (C.N.R.S.), priority 2002, dated 2012)
“Also recorded” adds a separate entry of the source.

How the values were obtained:
[1] = biological target: T1, GEFD2 domain of Kalirin (Rattus norvegicus, UniProt P97924); assay: Binding specificity of aptamers in yeast; set-up: key to Binding in yeast: +++^1 and +^1 represent respectively a full and a partial (see FIG. 1) binding capacity; +++^1 and +^1 represent respectively a full and a partial (see FIG. 1) binding capacity; −−^1 represents a lack of binding
T1 construct: GEFD2 domain of Kalirin (a.a. 1640-1980); expressed in transfected cells; host or cells: yeast
Excerpt: (§1) Trx represents the thioredoxin protein with no inserted peptide.
(§2) In order to identify specific inhibitors of TrioGEFD2, a recently developed strategy was used, this strategy being derived from the yeast two hybrid system, where the cDNA library of preys has been replaced by a combinatorial library of short peptides (20 amino acids) in fusion with the bacterial protein thioredoxin A (Colas et al., 1996). This strategy has been successfully used to isolate specific inhibitors of the cyclin-dependent kinases (Cdks), the cell cycle transcription factor E2F, or the viral HPV16 E6 oncoprotein and HBEV core protein (Colas et al., 1996; Butz et al., 2001; Fabrizzio et al., 1999; Geyer et al., 2000). The TrioGEFD2 bait was constructed as follows: plasmid pMTHATrio1848-2298 (Bellanger et al., 1998) was digested with EcoRI/XhoI and the insert cloned in pEG202EcoRI/XhoI to generate the bait pEG202TroGEFD2. Yeast strain EGY048 (Colas et al., 1996) was transformed with pEG202TrioGEFD2 and subsequently with the library of Thioredoxin constrained aptamers according to standard procedures (Ito et al., 1983). After transformation, cells were allowed to recover for 4 hours in galactose containing medium before plating on selective galactose medium. Of the 2×10^6 screened colonies, those growing in the selective medium were recovered and retested for interaction. […] Binding specificity was investigated by screening for interaction with the following baits: TrioDH2 (a.a. 1848-2096), TrioPH2 (a.a. 2107-2223), TrioGEFD1 (a.a. 1232-1629), Dbl (a.a. 498-826), Vav (ala. 172-598) (Zhang et al, 1994), GEFD2 domain of Kalirin (a.a. 1640-1980)(Penzes et al., 2001), p115RhoGEF (a.a. 391-870)(Wells et al, 2002) and PDZRhoGEF (a.a. 964-1362) (Fukuhara et al., 1999). None of these aptamers interacted with other RhoGEF members such as Dbl, Vav, and the RhoA-specific GEFs p115RhoGEF and PDZRhoGEF.

[2] = biological target: T2, TrioGEFD1 (DH1PH1) (Homo sapiens, UniProt O75962); assay: Binding specificity of aptamers in yeast; set-up: key to Binding in yeast: +++^1 and +^1 represent respectively a full and a partial (see FIG. 1) binding capacity; +++^1 and +^1 represent respectively a full and a partial (see FIG. 1) binding capacity; −−^1 represents a lack of binding
T2 construct: TrioGEFD1 (a.a. 1232-1629); expressed in transfected cells; host or cells: yeast
Excerpt: as §1, §2

Binding in yeast ([1]; RhoGEF KalirinDH2PH2): +^1
Binding in yeast ([2]; RhoGEF TrioDH1PH1): +^1
B1: TRIAPα: aptamer of 154 amino acids: variable region of 42 amino acids inserted into the thioredoxin protein; tested as GST fusion (protein)
chain: MSDKIIHLTDDSFDTDVLKADGAILVDFWAEWCGPAREGADGAICGYNLATLVMLGPSERVFCPLCEPCSSDIYELMGPCKMIAPILDEIADEYQGKLTVAKLNIDQNPGTAPKYGIRGIPTLLLFKNGEVASATKVGALSKGQLKEFLDANLA
Binding to the second RhoGEF domain of Kalirin in yeast ([1]; growth on selective medium): weakly interacts; also recorded: interacted weakly
Binding to TrioGEFD1 (DH1PH1) in yeast ([2]; growth on selective medium): weakly interacts; also recorded: interacted weakly; also recorded: bound TrioGEFD1 in yeast
